Source: the DeepSol protein solubility set

Assay: soluble on expression in E. coli; label from the status in PepcDB or PDB records

Soluble on expression in E. coli, soluble:
MTEVRRRGRPGQAEPVAQKGAQALERGIAILQYLEKSGGSSSVSDISLNLDLPLSTTFRLLKVLQAADFVYQDSQLGWWHIGLGVFNVGAAYIHNRDVLSVAGPFMRRLMLLSGETVNVAIRNGNEAVLIGQLECKSMVRMCAPLGSRLPLHASGAGKALLYPLAEEELMSIILQTGLQQFTPTTLVDMPTLLKDLEQARELGYTVDKEEHVVGLNCIASAIYDDVGSVVAAISISGPSSRLTEDRFVSQGELVRDTARDISTALGLKAHP
MSLTIKLIAIDIDGTLLNEKNELAQATIDAVQAAKAQGIKVVLCTGRPLTGVQPYLDAMDIDGDDQYAITFNGSVAQTISGKVLTNHSLTYEDYIDLEAWARKVRAHFQIETPDYIYTANKDISAYTIAESYLVRMLIQYREVSETPRDLTISKAMFVDYPQVIEQVKANMPQDFKDRFSVVQSAPYFIEVMNRRASKGGTLSELVDQLGLTADDVMTLGDQGNDLTMIKYAGLGVAMGNAIDEVKEAAQAVTLTNAENGVAAAIRKYALNEGHHHHHH
MVSATYSVVYETGKKLNSGFDNWGWDSKMSFKDNSLVLTADPDEYGAISLKNLNSNYYGKGGCIYLQVKTETEGLVKVQGVRGYDETEAFNVGSFRSSSDFTEYKFEVDDEYQFDRIIVQDGPASNIPIYMRYIIYSTGSCDDHILEHHHHHH
MSLDLKRLKGSERVRKRVSVMMGSDDIRGCQHTLFEIVSNSIDRHRKGFGNYIKVIKHEDLSYTIIDHADGLPMDWNEKEHAYNWDLALKVLYAGDNYDANSTALGLNGLGLCSSQYASEFMEVISYKEDKKYTVKCKKGRPIDKETGEFICEDDDNLFTKEQGNRVLLVESNTENKTGTYIHYKPDLEVFTNIDISIDWINDKLDKQSMVNKGLKIEIYDEKEDRLYTHFYESGIKDYIKTISNDNNFSDVIYFTDKGKGRDKADKPEYDYNYEIALVFNNEINRLEYYHNSSELLQGGSTSDAISLAFTYAINEYAKNNNVFNKNESKIKFTDIQDSLICVISSFSTMTSYANQTKLSIDNKFIKDFTNQSLKEKLKLYFIENKLEADRIVNQILINKRANDKAEKSKIEIRNKEGHHHHHH
MPVLHNRISNDALKAKMLAESEPRTTISFYKYFHIADPKATRDALYQLFTALNVFGRVYLAHEGINAQISVPASNVETFRAQLYAFDPALEGLRLNIALDDDGKSFWVLRMKVRDRIVADGIDDPHFDASNVGEYLQAAEVNAMLDDPDALFIDMRNHYEYEVGHFENALEIPADTFREQLPKAVEMMQAHKDKKIVMYCTGGIRCEKASAWMKHNGFNKVWHIEGGIIEYARKAREQGLPVRFIGKNFVFDERMGERISDEIIAHCHQCGAPCDSHTNCKNDGCHLLFIQCPVCAEKYKGCCSEICCEESALPPEEQRRRRAGRENGNKIFNKSRGRLNTTLCIPDPTELEHHHHHH
GPGSMLHPYIAGFDGLTCVAGTPADTLARNPDTGTTGRGTGSGVEGVFGTSLDVAGQLAGFETLTSASLNNNFLYDGLPSSGVTLREPLLSTHLTRSPTTLSTVGEAAMQPTQNPTQTPQQDPLPDLNTLATNAFFPFPSAAGAASAEGGQQQMATANLYGASQLESIMKASAGDGKSASTAPEPAANNLLGRLTVSTLAAQSATPGTSPQSQPCPVPQFTPLGAGACSNASRSSAPSYSSASVPIGCGPQMCSGDTSFLYPNFVNEMSSVTPPQSVQGHTEGFVAGVTTPPAMPMNSSTMSNKGGSMNDNTSTSLSQATSSGIATSSGQPNDVEVRSNLFVCGLPVSVRDKELLELFEKHGEIESAKVMLDIHTGRIRGIAFVKFKNVEHAENAVDALNGTTVNGHQITVRVANSRAAYLPGNPTNKTFVRNVPLTVSRTTLFEYFAQFGEVTDLSIKSDTAQGRHNPSGRSASTTEDGADDKLNIVFITYSTKEAAAKAAEATHTKTPFKECNGVPLLAKVAEDTVRRMERLSRRQRPATGAEGTREVSTSSSSTNVASMSRFAAPSMGAALPTGMMMPPMMPMAGSFPPGTFVSVPTMGNTPDLTAPTMMPASVAGDHMTALRDASGNPIYSPAQPNPATATGGMAYAMPGNMAQPSIFFSAQPPPPAINQSPPQQSQQQPQAQPQTLYISTPNGFVPAPQQHQQQQQLPQPPPPQQQQPLQFFPAPPLLPQVPQQSQQTMPMPGAAPGQLVYMQTPNGSMMPVMYGGAQPATASMLPTQQMNPYFVMMGGQPPSNQ
MWLDRRGWLRVLGHWRYDLRRPSFTRTWSGDKGPMAETVSTQVGTEGGLRASHQQNGDAGGDAKVELSPGPPKPAGREVEPAPVGGEHPSAAAPGPGKHKKRRGATRERVVPPPKKRRTGVSFGDEHFAETSYYFEGGLRKVRPYYFDFRTYCKGRWVGHSLLHVFSTEFRAQPLAYYEAAVRAGRLQLNEKPVQDLNIVLKDNDFLRNTVHRHEPPVTAEPIRLLAENEDVVVVDKPSSIPVHPCGRFRHNTVIFILGKEHQLKELHPLHRLDRLTSGVLMFAKTAAVSERIHEQVRDRQLEKEYVCRVEGEFPTEEVTCKEPILVVSYKVGVCRVDPRGKPCETVFQRLSYNGQSSVVRCRPLTGRTHQIRVHLQFLGHPILNDPIYNSVAWGPSRGRGGYIPKTNEELLRDLVAEHQAKQSLDVLDLCEGDLSPGLTDSTAPSSELGKDDLEELAAAAQKMEEVAEAAPQELDTIALASEKAVETDVMNQETDPLCAECRLVRQDPLPQDLVMFLHALRYKGPGFEYFSPMPAWAQDDWQKD
MSLKQKLIKKAQELRQHGFTTGEIADELNVSMDTARWLTLQKPAEEKPEAPVDFFINWKSLGGNSTRLRYVSGALSDMALSHGEAEVILGIAVSGIPFATMMADFLEDMSGVETSLAVYHPHKHRKEKDDGEGAISTNFGSVEGKKVVIVDDVITSGKTVKEVIHAVKDHGGEPIAVTVLIDKSGLSEIEEVPIESLIKVGRLEGHHHHHH
MSLATIKDVAQRAGVSPSTASRAMHGSKIISKPTRDKVIKAARELNYAPDFNAQNLATKASNTIGVVLPVDHHEIFSNPFFLEMIRGINEVCSKNGAMTTLATGISSDELVHNIDVMIAQGHIKTFILLYSEKNDPVVERLKQFDVQYVVIGKPYQDVNKTSYVDNDNIQAGTDAAQYLIDHGHRRIGFLYSDLSRMVQSDRMLGYQRVMMQNQLPNIMLEERFETHAAGVKTLHKFFEQYPDVTGFVAVDDMLALKLQQVLHNDPNWKVKQFSLIGFNNSIFSDLAHPMLTSIAVFPQRLGEEAAKIAMADHPADELSTAVIVPHQIVKRHSVHQIKSEGHHHHHH
GGVVLRVVTVLEEPFVMVSENVLGKPKKYQGFSIDVLDALSNYLGFNYEIYVAPDHKYGSPQEDGTWNGLVGELVFKRADIGISALTITPDRENVVDFTTRYMDYSVGVLLRRGTSIQSLQDLSKQTDIPYGTVLDSAVYQHVRMKGLNPFERDSMYSQMWRMINRSNGSENNVLESQAGIQKVKYGNYAFVWDAAVLEYVAINDPDCSFYTVGNTVADRGYGIALQHGSPYRDVFSQRILELQQSGDMDILKHKWWPKNGQCDL
SLKEFELKGINHLALVCRDFQETIDFYTITLGLKLIKNIDLPSGGKHFFIDIGNNNTLAFFWSTKAPESVPGISSVRPEAFLTGDIITAHGSMNHVAFHVPLEKLEEYKEKLVSKGVQTTPVLHHTDVPMSSFYFFDPNGILLEFAANLQSLDTLPAELKEKEAIFLKEG

Soluble on expression in E. coli, not soluble:
MAHHHHHHMSDQINVKHKIGDTCRKLYSYFKTVNNTSTFIQNGTLTPSEFVDSGDFLVYKFKTWEWQEADKDRVVPYLPENKQFLITKNVPCKQRIKDLNNIVHDLIMIGYSQVMKKITIPQIYMNIYLIVNTQLMTKMYKMYKITSCYSKNMLHDSNSFKNNFIIIIKNFTCLNIITYDKYYQTPRIWLFGYNENGDPLKSEEIFEDILSDYSYKTVTVKIKIIFMILIRVLVHAEAILNVVNNWISEEKEPRIKKRINVYMYVFCFRHDLYLLFLLKFISGVIPTIEYDFTTDIEIPRDSNAGL
MLVLGGISLFLFMVKQNEKAMLNQEKERAAVVLADNETRVLFFYKDTCADCQKVYPTVYEEDQGENNIVFINLNQPKNRHYIKTYTLEKVPTFVTPKRRYVGTDTRKIQQLIAENNDERSEDLEHHHHHH
MVVEENCSMHHLERELDLELEIDMAMECAPIGRTIKSALLRAQSEARVIVGLSAAINVLSKSPEGSLFCLMAQPKDGDSATHMHEVLLEAFCYENDIYVIKVDDATKLSRILGQDSVESCCLVQKVWADAPEEQLTKAENQLVDYCEAHWDAPQQPIVQLPAV
EKDTIAAEHKQEASVLLNLHRNKINYLIGETMARMTSLSIAIDRPVDIKKMQSILEKTFDSEPRFSGLYFLNAKGDVTASTTELKTKVNLADRSFFIKAKETKKTVISDSYSSRITGQPIFTICVPVLDSKRNVTDYLVAAIQIDYLKNLINLLSPDVYIEVVNQDGKMIFASGQASHAEDQKPVSGYLDDISWNMKVYPNPVTIEELSKS
MSSLGNQSEKNSNNKFSDNVPLAQHEIWKEKYESLVTEHENLVKEHETLIKTLELIEKHEITLEDLVKKKQREALVGKEEIEKFDKEIGERKKMQEMLDKDLEYLKSCEETVMNGMSSGPSGARVADKRNVNKFESQEGNFKCFLICV
MNRSGQRLIVSAPRQIAFSTAVRQLSATPIQCQNESENSEPQKQGWISRLLKGQSMDPSSWQKQSHSSLLSNSELMYEFMTHNYRPGEQDAYLDAFGKYKNEMNQKNPSIELVGSWTCAYGRTRDQAIHLWRHNKGYEDVDSSISLHGKDSGIRAADNDVAKLCGRRKNLIVKSFSYWREPEQRPPNHVYDLRSYVLQPGTMIDWASAWAKGIQYRREANQDVGGFFAQVGQLYVVYHIWAYPSMSGRNDTRHATWAKPGWDATVANTVPLIKKMQSKILTPTKYSQLE
MSSQPKLRILCLHGYRQCDQSFRQKTGSTRKLVKSLAEFEFVNGVHSVAVDEHVDSSRAWWFSNNEAMSFSSRESTEVAVGFEESVAAVVKFIEENGPFDGLLGFSQGASMVHLLIAKAQLGEIKLPGIRFAIFFSGFLSLSSKHDSLTLLRIKEFPSMHVFGDADEIVARPKSEKMADMFDVEPLRIAHDGGHVVPSMSKHKEKIAGFMREQLDRKIENN
MVKDLSDMSLKELWQLFPIFLVEHKEEWEDWYEEEKERLLHLLPSQSIKSISHIGSTAVPDIWAKNIVDILLEVPEKEDLQDFKKRLLDAGYLLMSEGEKRLSFNKGYTKDGFAEKVFHLHLRYQGDNDELYFRDYLREYPEVAKDYERLKLGLWEKYEHNRDAYTDAKSDFIRKYTQKAKKNDKGKDN
PNILRGLLLGYSEKMVELEHKVEVMQPTIDAFDRIATANGSLCLTDAAKALQMRPKDFISFLSQKQWIYKRTGSAHYVGYQDKVQAGFLEHKVTEVTRGDGSNKITEQVRVTPKGLTRLSKLLGNNHV
MFSRGASTMQSRELREQLLGCVKSRKSLHVTGPPGSGKSTFVSRLAEALRVKGCRLGGFMAPEVRRGGRRVAFKIVDIASGEEGYLAVADESLAAPGGRRARHGRYLVLVDEAWRVMSHAIRNAFEHADIIIVDEIGPMELAVPGFREALTEILDSGKPLVTVFHRRLRTLDPGLYKLLERGCIVWLDERNRGPLIRLVSEIASALSNEACGNSLEHHHHHH
MGSDKIHHHHHHMQTLEQLTSPEHSAWITLSQWIDNARNHCEVIKKDQSSAERELFTMQMPTSSPMGAVIYETGGILIHYGWLRILGSGSFKLPRGLMDWNFSKSFSESGEKPKYLLVADDVIGGYFALNGGSLGNNIGKIYYYSSKDLTWHNLNFTYTEFLAWVLNGDVEAFYQGLFWKNWQDDVKQLDGNQVFVFTPDLNQDRKIAIDERQKQEVNIETHYQANFAEKNKFDLAYSVA
